Test results published in patent US20240141072A1.
Where a chain is given by its changes, count along the chain named. Numbers in names are those of the source. Blank lines part the entries; values can stand above or below the binder they belong to.

Molecular target: human DLL3 on DLL3-expressing tumor cell lines (human) (UniProt Q9NYJ7)
Experiment: cell-based or functional assay

Sequence of human DLL3 on DLL3-expressing tumor cell lines (human) (Q9NYJ7 27-618 limits assumed): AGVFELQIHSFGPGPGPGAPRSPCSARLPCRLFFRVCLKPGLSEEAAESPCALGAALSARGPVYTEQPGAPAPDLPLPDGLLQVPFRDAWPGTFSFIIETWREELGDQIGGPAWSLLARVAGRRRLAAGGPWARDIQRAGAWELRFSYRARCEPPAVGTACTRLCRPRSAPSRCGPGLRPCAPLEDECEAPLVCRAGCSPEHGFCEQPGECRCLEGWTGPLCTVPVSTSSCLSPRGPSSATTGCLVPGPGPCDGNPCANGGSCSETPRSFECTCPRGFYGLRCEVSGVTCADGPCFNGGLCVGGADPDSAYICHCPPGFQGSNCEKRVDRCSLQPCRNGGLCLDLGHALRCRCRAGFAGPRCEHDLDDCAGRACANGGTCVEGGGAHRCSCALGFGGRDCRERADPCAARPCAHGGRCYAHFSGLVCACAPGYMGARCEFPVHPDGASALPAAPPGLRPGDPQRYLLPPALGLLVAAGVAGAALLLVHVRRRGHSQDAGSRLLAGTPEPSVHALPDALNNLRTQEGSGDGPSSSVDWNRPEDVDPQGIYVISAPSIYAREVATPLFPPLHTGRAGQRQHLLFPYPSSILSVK

DMS-153 TDCC EC50: 49 pM
B1: 2F11 anti-DLL3 trispecific protein (protein, not shown: large carriers)
chain: EVQLVESGGGLVQPGGSLTLSCVASGSVSSINAMGWYRRAPGKQRELVAGISSDGSKVYKDSVKGRFTISRDNAKNSVYLQMNSLRAEDTAVYYCYYFRTVSGSSMGYWGQGTLVTVSS

DMS-153 TDCC EC50: 63 pM
B2: 2E05-M106Y anti-DLL3 trispecific protein (protein, not shown: large carriers)
chain: B1 chain with V28P, M34Y, K60S, M106Y, G107S

DMS-153 TDCC EC50: 41 pM
fold TDCC potency over the parental molecule DH43: 6.6 fold
B3: 2E05-M106Q anti-DLL3 trispecific protein (protein, not shown: large carriers)
chain: B1 chain with V28P, M34Y, K60S, M106Q, G107S

DMS-153 TDCC EC50: 54 pM
fold TDCC potency over the parental molecule DH6: 4.4 fold
B4: 4D09-M34L anti-DLL3 trispecific protein (protein, not shown: large carriers)
chain: EVQLVESGGGLVQPGGSLTLSCAASGSSVKFLSLAWYRQAPGKKRELVAGISADGSTDYILSVKGRFTISRDNAKNSVYLQMNSLRAEDTAVYYCYAYEWTTRYTYWGQGTLVTVSS

DMS-153 TDCC EC50: 130 pM
B5: 4H11-M34L anti-DLL3 trispecific protein (protein, not shown: large carriers)
chain: B4 chain with K30S, F31R, A53V, L61D, E99R, Y104L
